Source: the RNAGym collection of RNA variant scans (doi:10.1101/gr.219683.116)

B1: mRNA-splicing (parent)
chain: AGUUGCUGCUGGGAGCUCCAGCACAGUGAAAUGGACAGAAGGGCAGAGCAA

Variants of: B1
Assay: exon inclusion enrichment index; higher = more inclusion; WT1 exon 5 minigene, HEK293

Variant	exon inclusion enrichment index
AGUUGCUGUCGGGAGCUCCAGCACAGUGAAAUGGACAGAAGGGCAGAGCAA	2.55
AGUUACCACCGGGACGUCCAGCACAGUGAAAUGGACAGAAGGGCAGAGCAA	2.13
AGUUUCUUUUGGGAGCUCCAGCUUAGUGAAAUGGACAGAAGGGCAGAGCAA	0.00337
AGUUUCUUUUGGGAGCUCCAGCACAGUGAAAUGGAGAGAAGGGCAGAGCAA	0.0708
AGUUACCACCGGGAGCUCCAGCACAGUGAAAUUGACAGAAGGGCAGAGCAA	0.998
AGUUACCACCGGGAGCUCCAGCACAUGGAAAUGGACAGAAGGGCAGAGCAA	3.47
AGUUUCUUUUGGGAGCUCCAGCACAGUGAAAUGGACAUGAGGGCAGAGCAA	0.0405
AGUUCGCGCCGGGAGCUAUAGCACAGUGAAAUGGACAGAAGGGCAGAGCAA	0.321
AGUUAUAUAUUGGAGCUCCAGCACAGUGAAAUGGACAGAAGGGCAGAGCAA	0.0798
AGUUGACUACGGGAGCUCCAGCACAGUGAAAUGGACAGAAGGGCAGAGCAA	2.22
AGUUAUAUAUGGGAGCUCCAGAUCAGUGAAAUGGACAGAAGGGCAGAGCAA	0.0397
AACUUCUUUUGGGAGCUCCAGCACAGUGAAAUGGACAGAAGGGCAGAGCAA	0.198
AGUUAUAUAUGGGAGCUCCAGCACAGUGAAAUGGACAGAAUAGCAGAGCAA	0.0133
AGUUUCUUUUGGGAGCCUCAGCACAGUGAAAUGGACAGAAGGGCAGAGCAA	0.0755
AGUUCGCGCCGGGAGCUGGAGCACAGUGAAAUGGACAGAAGGGCAGAGCAA	4.32
AGUUGAAGAAGGGAGCUCCAGCACAGUGAAAUGUCCAGAAGGGCAGAGCAA	0.203
AGUUCACUCAGGGAGCUCCAGCACAGUGAAAUGGACAGAAGGGCAGAGCAA	0.146
AGUUGACGACGGGAGCUCCAGCACAGUCUAAUGGACAGAAGGGCAGAGCAA	2.34
AGUUCACACAGGGAGCUCCAGCACAGUGAAAUGGAGUGAAGGGCAGAGCAA	0.0414
AGUUGUCGAAGGGAGCUCCAGCACAGUGAAAUGGACAGAAGGGCAGAGCAA	0.879
AGUUCGCGCCGGGCACUCCAGCACAGUGAAAUGGACAGAAGGGCAGAGCAA	1.07
AGUUGACGACGGGAGCUCCAGCACAGUGAAAUGGACAGAAAGGCAGAGCAA	2.41
AGUUAUAUAUGGGAGCUCCAGCACAGUGUGAUGGACAGAAGGGCAGAGCAA	0.0618
AGUUGCUGCUGGGAGCUCCAGCACAGAGAAAUGGACAGAAGGGCAGAGCAA	0.201
AGUUGACGACGGGAGCUCCAGCACAGUGAAAUGGGGAGAAGGGCAGAGCAA	0.776
AUUUAUAUAUGGGAGCUCCAGCACAGUGAAAUGGACAGAAGGGCAGAGCAA	0.188

Variant	exon inclusion enrichment index
AGUUCGCGCCGGGAGCUCGAGCACAGUGAAAUGGACAGAAGGGCAGAGCAA	3.72
AGUUCGCGCCGGGAGCUCCAGCACAGUGAAAUGGACAGAAGGGCACAGCAA	2.78
AGUUCGCGCCGGGAGCUCCAGCACAGUGAAAUGGACAGAAGGGCAGCGCAA	3.06
AGUUGCUGCUGGGAGCUCCAGCACAGUGAAAUGGACAGAAGGGCUUAGCAA	0.0239
AGUUCGCGCCGGGAGCUCCAUCACAGUGAAAUGGACAGAAGGGCAGAGCAA	2.48
AGUUACCACCGGGAGCUCCAGCACAGUGAAAUGGACACGAGGGCAGAGCAA	2.15
AGUUACCACCGGGAGCUCCAGCACAGUGAAAUGGACAGAAGGGCAGACCAA	2.4
AGUUACCACCGGGAGCUCCAGCACAGUGAAAUGGACAGGGGGGCAGAGCAA	0.26
AGUUCGCGCCGGGAGCUCCAGCACAGUGAAAUGGACAGAAGAUCAGAGCAA	5.36
AGUUAUAUAUGGGAGAACCAGCACAGUGAAAUGGACAGAAGGGCAGAGCAA	0.0573
AGUUAUAUAUGGGAGACCCAGCACAGUGAAAUGGACAGAAGGGCAGAGCAA	0.0702
AGUUACCACCGGGAGCUCCAGCACAGUGAAAUGGACAGAAGGGCGCAGCAA	3.06
AGUUCGCGCCGGGAGCUCCAGCACAGUGAAAUGGACAGAUCGGCAGAGCAA	3.11
AGUUACCACCGGGAGCUCCAGCACAGUGAAAUGGACAGAAGGGCAGGCCAA	1.13
AGUUAUAUAUGGGAGCUAGAGCACAGUGAAAUGGACAGAAGGGCAGAGCAA	0.00128
AGUUCACACAGGGAGCUCCAGCACAGUGAAAUGGACAGAAGGGCAGGUCAA	0.00361
AGUUGCUGCUGGGCGCUCCAGCACAGUGAAAUGGACAGAAGGGCAGAGCAA	0.099
AGUUCACACAGGGAGCUCCAGCACAGUGAAAUGGACAGGUGGGCAGAGCAA	0.0129
AGUUGAAGAAGGGAGCUCCAGCACAGUGAAAUGGACGGAAGGGCAGAGCAA	1.54
AGUUUCUUUUGGGGCCUCCAGCACAGUGAAAUGGACAGAAGGGCAGAGCAA	0.0571
AGUUCACACAGGGAGCUCCAGCACAGUGAAAUGGACACGAGGGCAGAGCAA	0.111
AGUUCACGACGGGAGCUCCAGCACAGUGAAAUGGACAGAAGGGCAGAGCAA	2.61
AGUUACCACCGGGCCCUCCAGCACAGUGAAAUGGACAGAAGGGCAGAGCAA	0.761
AGUUAUACCUGGGAGCUCCAGCACAGUGAAAUGGACAGAAGGGCAGAGCAA	0.696
AGUUACCACCGGGAGAUCCAGCACAGUGAAAUGGACAGAAGGGCAGAGCAA	2.46
